Results published in patent US20170275666A1, “Methods for Preparing Rebaudioside I and Uses” (The Coca-Cola Company, priority 2014, published 2017).
Substitutions are numbered along the chain they refer to.

B1: UGT76G1: UDP-glycosyltransferase from Stevia rebaudiana (Genbank AAR06912.1), in-vivo produced lysate (protein, UniProt Q6VAB4 1-458, looked up)
UDP-glycosyltransferase 76G1: MENKTETTVRRRRRIILFPVPFQGHINPILQLANVLYSKGFSITIFHTNFNKPKTSNYPHFTFRFILDNDPQDERISNLPTHGPLAGMRIPIINEHGADELRRELELLMLASEEDEEVSCLITDALWYFAQSVADSLNLRRLVLMTSSLFNFHAHVSLPQFDELGYLDPDDKTRLEEQASGFPMLKVKDIKSAYSNWQILKEILGKMIKQTKASSGVIWNSFKELEESELETVIREIPAPSFLIPLPKHLTASSSSLLDHDRTVFQWLDQQPPSSVLYVSFGSTSEVDEKDFLEIARGLVDSKQSFLWVVRPGFVKGSTWVEPLPDGFLGERGRIVKWVPQQEVLAHGAIGAFWTHSGWNSTLESVCEGVPMIFSDFGLDQPLNARYMSDVLKVGVYLENGWERGEIANAIRRVMVDEEGEYIRQNARVLKQKADVSLMKGGSSYESLESLVSYISSL
modifications: cell lysate
notes: UDP-glycosyltransferase from Stevia rebaudiana (Genbank AAR06912.1), in-vivo produced lysate
B2: UGT76G1var94: UGT76G1 variant, mutations Q266E_P272A_R334K_G348P_L379G; most active round 1 clone (protein, UniProt Q6VAB4 1-458, looked up, variant Q266E P272A R334K G348P L379G)
UDP-glycosyltransferase 76G1: B1 UDP-glycosyltransferase 76G1 with Q266E, P272A, R334K, G348P, L379G

Legend:
Format in all cases: biochemical
[1] = Catalytic reaction with in-vivo produced UGT76G1, stevioside to rebaudioside A; conditions: 0.5 mM Stevioside, 2.5 mM UDP-glucose, thawed lysate, 30° C., HPLC (CAD)
Description: The total volume of the reaction was 5.0 mL with the following composition: 50 mM sodium phosphate buffer pH 7.2, 3 mM MgCl2, 2.5 mM UDP-glucose, 0.5 mM Stevioside and 500 μL of UGT76G1 thawed lysate. The reactions were run at 30° C. on an orbitary shaker at 135 rpm. For each sample, 460 μL of the reaction mixture was quenched with 40 μL of 2N H2SO4 and 420 μL of methanol/water (6/4). The samples were immediately centrifuged and kept at 10° C. before analysis by HPLC (CAD).

[2] = Directed evolution of UGT76G1, conversion of Rebaudioside D to Rebaudioside M (round 1); conditions: 0.5 mM Rebaudioside D, 2.5 mM UDP-Glucose, 100 μL fresh lysate, 30° C., pH 7.2
Method in brief: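 Conversion to Reb M and initial rate were measured by HPLC with CAD at 2, 4, 7 and 24 h, with reactions run at 30° C in 50 mM phosphate pH 7.2 containing 0.5 mM Reb D, 2.5 mM UDP-glucose and 3 mM MgCl2. Enzyme source: fresh lysates of E. coli BL21(DE3) expressing 3-5-mutation UGT76G1 variants.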

[3] = Directed evolution of UGT76G1, conversion of Rebaudioside D to Rebaudioside M (Round 2), normalized to Round1-Var94; conditions: round 2 clones; baseline clone Round1-Var94 defined as 100%; lysate, Rebaudioside D 0.5 mM, UDP-Glucose 2.5 mM, 30° C., pH 7.2, HPLC
Excerpt: A list of 53 mutations was established containing different identified positive mutations from the first round and new mutations obtained by DNA2.0 ProteinGPS™ strategy. This list of mutations was subsequently used to design 92 variant genes that contained each 3 different mutations. After codon-optimized for expression in E. coli the genes were synthesized, subcloned in the pET30a+ plasmid and used for transformation of E. coli BL21 (DE3) chemically competent cells. The obtained cells were grown in Petri-dishes on solid LB medium in the presence of Kanamycin. Suitable colonies were selected and allowed to grow in liquid LB medium in tubes. Glycerol was added to the suspension as cryoprotectant and 400 μL aliquots were stored at −20° C. and at −80° C.
These storage aliquots of E. coli BL21(DE3) containing the pET30a+_UGT76G1var plasmids were thawed and added to LBGKP medium (20 g/L Luria Broth Lennox; 50 mM PIPES buffer pH 7.00; 50 mM Phosphate buffer pH 7.00; 2.5 g/L glucose and 50 mg/L of Kanamycine). This culture was allowed to shake in a 96 microtiter plate at 30° C. for 8 h.
3.95 mL of production medium containing 60 g/L of Overnight Express™ Instant TB medium (Novagen®), 10 g/L of glycerol and 50 mg/L of Kanamycin was inoculated with 50 μL of above described culture. In a 48 deepwell plate the resulting culture was allowed to stir at 20° C. […]

Molecule	conversion of stevioside to rebaudioside A [1]	Conversion Reb D to Reb M after 24 h (%) [2] [%]	initial rate (Reb M area/min) [2] [Reb M area/min]	Normalized conversion Reb D to Reb M after 22 h. [3] [%]	Normalized initial rate (0-4 h) [3] [%]
B1	almost complete conversion				
B2		72.0	7.9E+07	100	100
